We go through 17 sequences from the DeepSol protein solubility set.

This data set can be described thus: soluble on expression in E. coli; label from the status in PepcDB or PDB records.
As for “GPGSMLGGRHFQRKYEKKQKKKEAKKASQGPLRGAGGSSGVRAAVAAAAGAAVKRKDGSTLKGPVVSHGDFMASRDSANNRKNVPFSSKMEEKVYRKEHRVPKYNSIVDPERQNLAKAAGASSAAQRRRVLRQKGGDDLLDHFRERLNASTFRLLNEQVYNAPTTLASRLLREEATFRDYHTGYHQQLMQWPINPNKLIVESLLGDRRGRFLANKGKSMPGHIPPSWVVADMGCGEAQIAAALKPKGYTVHSFDFFALNSLVTVADTTKVPLADNHVDVCVFSLSLMATDYVKSLFEAFRVLKPKRLLKIIEVRSRVPFPRKFAELVEDIGFDVDYSDVAGDYFVAFDFIKKDGQAAANTQLRHEPGDVLVPSLYKKR”, the “soluble on expression in E. coli” value was “soluble”. With “GPGSMLRSEVLDAEVAKSVEAYSTAVTPFVERRSGLYLTKFEVARIIGERAKQIASGAAMSLPGTGSGLDSVETAERCTNPRSLAVDPVMMAKYDLLQRKIRMLVRRVWPDGAVETIPVNELMVDVTMLDLQY” the entry was “soluble”. With “GPGSMLRVSLACRVTAARSAAPHTTSSSSSLVESVTSVFRSSRYLRHAPPRLYVTCSHDQGIPLHGCGRHMTTVLDVSREASPNAPPHTQSIYLLTSTSISDVEFKDSAAQSQVLVGLPQVQSIDAIHRFCDTYAATLSRVHHILLPGGVSPLQSSLIKQLLEHIPQARLVCNGFGHALLTNATFHDGVQRAVLENEPDAPPELLRFAALPADRVSSMADGDTVAVDVAKSEAESSAPVAARALRVVAVKSKGQQQRRREHSQTHHPAHFTNEALFYYDDVFNALFVGHTLHRLPWLPTVLTEASRELFLPMPPPLATQRPLSRPSPLLDTWRVLESCEDVVEALRRTPELERVLAGSYGELCGNVEDCIAGLESSSDALERLRSRLARRLTTDTSRDVHRWSTALLKRIVHEVVCTQKASEPTSSEVQEAFLCWARTDGEWGRLSTCLAHAAMVLPPSTETGEADGASSSAADSFAAHDSVPAAGATAAGESAAPEALQGTHGVELLVAVFNRKGLQGLIRTVQRETIDVQVFLAMSEEDLKKVFKATFGITKRLMLLQDELRKNL” the entry was “not soluble”; with “GPGSMMEATERRRKRERNERNDERRDDCEVLAKTDEKRTIVEELFQRLQSLDHTHMELEARLCRRAEVSDKSGSTSSEREWKGRRARKTRTEVMPGVAEEDYKRIEEFCLDKGKEGSVTRSTTRDVSFGQWRYTYTSGKPSECIACIRKERLFVLDVPVPSGAYDIRFSACTEITGELPSPNFAPTRGYTRHKDRLSVTDGLFRYDLTRVRDKHTTGYEVEVEFLLKDNDEKKITDSHVEELVGRALSLATLTASEG”, “soluble”; with “GPGSMMVGKAPKNCVHIGLCVLYSGSGFRGLQIQVHAPTCHTVEGVLIQALKDAGIIADVVRGRPAGEHHHFARSCRTDRGVHAIRNMVSLFVPKEVFEKMGQAEGICEKLNRQLPATVRVANVMQLSGSFIPRHCCNRRVYRYMLPLYALLPPCDTWAAVDKYYPGCLAHVQALAEEAAAAQRTQYSIPYVDLEKMNAVARPADAQALPSSWLRDLKASADRCNQVLRSHFTGSRRYHNFSVDIDSNRSGVSAKVIQPTTDEALRAIYRSEVCPRLFFFPCSTKGGAADEAPVPVHGESRTEYDMNLLRYPPRTPTSPEDTVGGSAAASTTTTPTGTSTTPATCLSPNTTALPFLFFQIEGCSFLLNMIRKIIGSVLAVCRGARESILEDAFSPECRVTTPLAPGPYLYLAQSTYHGYDRSIGGAGNAHQPGRLKTVQDAWGGAVSEAAELFAFHKIAADIVDVDLNAMPPLDDILAARDRAREASRPHTAVEDAHLAEMKEYKPVLPTRIPWPASSDMTVFLRLLRVHNWNVRPIQLDPACKALREIKNRKERLTASSVAAAASPGAEASKAGEADGGDTRANEATVEQAATPTGDAWRIRSEGSSTGGVPEGGEDGWLYVADTPEEASVQRQAYFASLWKRARPWEYDDATGKSLIHGGEVGTEDDFDDGDGSTARPRRHRRV”, “soluble”. With “GPGSMPPAPAPPFSSVSQCLSALLPPTAFSLLPLTHTHTHTHTHRTCTHIIFSEPHIVFYCVCPFTRCHRRRPLPSPLSLSLPQHTTLSTAINKHEAEVVLDWSMSRLARALAKPFTVPVAMCTRHVAAMDEPLKRHIDAYAARGEDITIAVWREYVDGQRALLPYRWTKFRSEVAYLTSGQMAITDLTFADLLVFIRFLTKCLFIFIVAVMVGRRSVFPSLEPTSPFVEEIVKNWQPNRLHGVAGAEYMACDQAAAAGYGHR” the entry was “soluble”. For the sequence “GPGSMPVPPPPPPPPPPPPPPPPPANSGGPSASVGGAAAAVFAEICQGGDNITARLRHVTDDQKMYKQNIRHGEVDMSELEHKKAAAEERRRAQQRTESTTGEEAAQPPVLTLEGDKRWVVKHQAGSPAVQLQLVLDKAEMRHAVRIENCHHAYITITNKVNSVSIVNCTKVQVALQVIVSSLEVLGCADVDVQVAQAAPTIDIERSTSVNVYLLDKDEARNTEIVTACSSTVNVLFPSEKEEDIVERAIPEQFVTRIVPDGKGGHKLCTKPSESF”, the “soluble on expression in E. coli” value is listed as “soluble”. With “GPGSMQIRRATMEDMYQMQHCNLRCLPENYNLRYYFYHILSWPQLLYVQEDYNRNIVGYVLAKMEDEEKPANIHGHITSIAVLRTHRRLGIASRVMRASMKEMEKEYDANYCSLHVRKTNDAALHLYQETLGFRCANVEKGYYVDEEDAFHMKKFFKGPNPGLYVAANRQLVRQQNSAAAAVTGMAALQRNGGTAPPPPPPSSSSAGGQRGENDTADLEKEQLKLVAELLEESNKESGKGRQQKQKQQQQSKGGNKRGKTKK” the entry was “soluble”.

As to “GPGSMRDHAPTSAASATALVNPSLPNSSVVDASLTGAQKKSGASSTRQRPPTPLPSTTPPRSEQHYRMTETEAWLSASFGNLATMGDSNGNSGGARRHGGPSPSAAFPLTFQEVPAAVVNHLLSRITLIQSEEQRHRDAVTVEGREVSGSPEMADGAPLPTRNECRAIGEFMLANDTLLGRRPREGIDASACAPSALRLVSMPLFGDHRLATYSPQGAAANRRRRRRSKNRRAAGGGGDDVGELPCLATGNAGLAEPQEARGNGAGATPSTTSHPYSPRTFFVATQSHDVRRRLAAVTPLLRLTTNPDALWIEQRGTAYHYGEEGAEARRPHIDMKGLGNCSSFSVAAAASSRGGRGSSEPGPPRSASFSHTPSFPHAATATTTVIAAAPQLSRADVAFMKHLGTAAEVPLPAKPSHHPHQQEQQQLQLRASPASDTGVSNRAPVDRKRRRQKGQNPLSMKKKQRREVFRAH”, the “soluble on expression in E. coli” value is “not soluble”. To “GPGSMRLLSKAAHPDGSMEVRVSVGTAEDLWHLYNFILVGDLVLTKTRRKVPRENALGTLAAEMKMLKLEVEVKHIAFTPDELRIQGVNKKENNFVKTGAHHTLTIHANPPQEVRITKREWDSICEDRLKDACDESGKADTAAVLMSFGEAQVLLVTRSFVHIKAKVEVTISKKHKSDGKARDKSIERFFKQSLDALVTHVDFEKTKLVLLCSPGHVREEFHAYIKEVTQRADHGPLREVYLNLSRFLLVKVSSTTISGLKEALSDPGVAQRMESTKCVDDIRMWEKFQDTMNKDPDRCVYTPQYVYYAAMAGAVGGLMISDDVFRSENPTERRFFLSLVNFVRQSGSPTVNVFSSKHVTGEQLTQLGSVAAVLRFSCPEIDDMEVVPEFLASKEVEEFIRANATARVTV” belongs “not soluble”; to “GPGSMRLSLLRRFCEYVPKGAPTQVSLSVETPYGVTRAFRMTEMAAAAADAERDAKGFFYLPRMDYDVGQGVAPLMSRKQFDVQYNVFHKAAVDRLNAHTLGSELEGHNLNVVIRNSSFDASHAVIHAAASEHFNYCFWYRSLRPWGTAVPARLKEELQLQYSQNGTLDAVKEVQRLFTVAALSQQSAGGWVYLVWTGKAFDVIPFDHGTCPIGSDLIPLLALNTHESARCYDYPLAAEDEEGDEVERFVRNFFKTCNWRLVEHYFLQCGRA”, “not soluble”; to “GPGSMRPNVMLTIPKNTLQVFDMGLDFRSYLSRVDVNGLPVLGNVVSYEASKLTEVFTPTVGLLVTILHMLAHCTSSCSAVAWLKAYDAIQKMYIENSEEENTEAVRYAVEARAAIKDYLTGDAVPGTNLLCEKLLTLLDQQSGIHGSQAPSQRKVPREPKGAFCNLHLSDQKCYQDFACNQLHLQEVKTVRHRKIFYMRLIEVLKAEKRSRQQIRHRIKDSVFFARYGNKVTVQCQGKWIPFFKTVYTDGRLEQALRTQHFACGDSACADENCLGIHPQDRRVTTSSKLMDLNNPDVVLQQIEEEAERHLSMEGAFNDHEAEHISAAASSSSMPSPTSEMWRNTVREYVRQTGIPQVEADESLLRTLQDANVLATPTASTESLTPLLDELDMRTFSSSSPVREHPNAEIG”, “not soluble”.

As for “GPGSMRSAQLPSKLSSAAGSCKHWVVSVPNSSESYRCFCSLIDRALQPGTCHPYSVRFRLEHLLPADWSLLLGWCRRLTSCGGSFTYTSPGDISEQTESVGAVDDSEGHPAVVNAAFMHVVERCHGDFVPNNMIYHELQRRYTVYAPASPPPPEGPEDFTSFLGALQDSVCDGCLASLSEGDGNVGEDPLASQVPSLEATKHNQKVLGVGAAASMESEAHRQQGELLFNFFPHRVVVSDGIPCHSTHFVVMVNLKPVVPWHLMVVPIRCVGTLSALSAAEMEDLGHMIHLTISVLSHVLVKPAVTGTGDTSSNGGSRVERGCSPHSIGSPVPASVVGGGGFSIAIQQGELAGQTVPHLHVHVIPFDPRGKLAGEPEDEEQQRRQPPRTGAQMRKETEFLRPHFVRLANEKNMRGICATCG”, the “soluble on expression in E. coli” value is given as “not soluble”. With “GPGSMRTCASTLSHLCAQGPLRGSMHVTLHALVRFCAHVASSLRSGQATLHPSLPLRFSHPLRLPSARFSHSTGVLSLALPVMQHTHIHTLTHTYSSIYRRFTARLRLSDSTCYTQGSTHTHTQSICFSIHSPLSLSLSETSALLGAPSSSSFSATSPAYRVRTASSCNRLPDGHKHFRKYIYIYIYIYWALSRISLGASADLPWNVRIHRVRMTATEYQKLIGERRLSPEEEENLVQRLYFRQMKLTEQREEERRAILERTRAQMQKHISKDEEGRLVSRMYDQQVERFANSKAERDRKLEEEMHKNDKKMDSSEIDDQVRRIYEEELKRSQARREELYSRYMPTAEAKKIGKKELKGCVERLSHVDWEKRDEELFKKYVYPYDPKTTKISRDDEQAMANRLSTTKGAG” the entry was “not soluble”; with “GPGSMSFAQNGTAPSTPAQQSKPEPDASPVAGEGSTSGRCAFDPEALRNLIVNYLPPLMNEAQVYELFGQFGRIESVKIIYDKITGESRGYGFVKYYFFFSATYAVSCLNRFEIGGKKLKVAYANAPAAKEAYDMLRLSAVALSVQQQQAMQSMYYHQMVLAQEQQGASAASSVAASAPMVGGADYGPYMNRVGGGYAMRQRESGAGYAQGMYPGMVAGGSVYLAGPFASGSRIVTPAIAPIGF”, “not soluble”; with “GPGSMSSERYVDGDLGEPFNSAEPLTLPVVVQLLRGRRDTSLDHPASRLIEKTCRQVELMQETCADECRVQRVMETRLRLVNKNNRQQMNAHLGNFVVGEDGFATLPPESDDFLDTAEEEAMKMFEVVALGTLQPKTADEARELIPSLGRFEPADLNKVLEMLDSL”, “not soluble”. To “GPGSMTDFPKLNRIKSDDENMEKIHVAARKGQTDEVRRLIETGVSPTIQNRFGCTALHLACKFGCVDTAKYLASVGEVHSLWHGQKPIHLAVMANKTDLVVALVEGAKERGQMPESLLNECDEREVNEIGSHVKHCKGQTALHWCVGLGPEYLEMIKILVQLGASPTAKDKADETPLMRAMEFRNREALDLMMDTVPSKSSLRLDYANKQGNSHLHWAILINWEDVAMRFVEMGIDVNMEDNEHTVPLYLSVRAAMVLLTKELLQKTDVFLIQACPYHNGTTVLPDRVVWLDFVPAAADPSKQEVLQLLQEKLDEVVRSLNTGAGGAVKRKKKAAPAVKRMKLAPSAPVRTRSRSRARSSAVSK” belongs “soluble”.
